For assay [1], the target named is human Trop-2 (EGP-1, TACSTD2) on human tumor cells or tissues (human) (UniProt P09758). Description: cell binding on NCI-N87 cells, anti-mouse-HRP, luminescence.
For assay [2], the target named is rhTrop-2/TACSTD2 (Sino Biological, Inc.), recombinant human Trop-2 immobilized on CM5 chip (human) (UniProt P09758). Description: SPR (BIACORE), low-density recombinant human Trop-2 chip, three runs.
For assay [3], the target named is recombinant human neonatal receptor (FcRn) (human) (UniProt P55899). In words: SPR (BIACORE), FcRn chip. (In general: SPR reads the build-up and loss of mass on a sensor chip optically.)
Sequence of recombinant human neonatal receptor (FcRn) (human) (P55899 24-297 limits assumed): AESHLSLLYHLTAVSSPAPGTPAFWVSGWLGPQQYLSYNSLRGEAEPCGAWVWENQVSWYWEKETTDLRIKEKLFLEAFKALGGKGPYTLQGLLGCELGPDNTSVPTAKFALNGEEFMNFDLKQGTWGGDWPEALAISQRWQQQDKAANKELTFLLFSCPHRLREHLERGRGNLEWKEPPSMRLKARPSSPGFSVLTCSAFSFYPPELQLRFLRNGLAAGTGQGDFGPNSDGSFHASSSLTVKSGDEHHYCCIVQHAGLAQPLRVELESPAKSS
The target is the same in assay [4]. Description: SPR (BIACORE), low-density FcRn chip, three runs at 400 to 25 nM.
Assay [5] addresses human Trop-2 (EGP-1, TACSTD2) on human tumor cells or tissues (human) (UniProt P09758). Description: cell-based or functional assay.
Assay [6] shares this target. Description: cell binding assay; cell line not stated.
Assay [7] concerns the target rhTrop-2/TACSTD2 (Sino Biological, Inc.), recombinant human Trop-2 immobilized on CM5 chip (human) (UniProt P09758). Description: SPR (BIACORE), Trop-2 chip.
Assay [8] addresses human Trop-2 (EGP-1, TACSTD2) on human tumor cells or tissues (human) (UniProt P09758). Description: cell-based or functional assay. The source holds these as a separate data set.
Assay [9] has as its target Recombinant human Trop-2 with a His-tag (Sino Biological, Inc., Cat#10428-H09H) (human) (UniProt P09758). Description: ELISA on Ni-NTA strips coated with His-tagged recombinant human Trop-2. In general terms: ELISA stands for enzyme-linked immunosorbent assay.

By Kd is commonly meant a measure of binding affinity in units of concentration.

Like-named read-outs stand apart in the source and are kept apart here. A value given as a limit tells only on which side of the number the result lay.

Sequence of human Trop-2 (EGP-1, TACSTD2) on human tumor cells or tissues (human) (P09758 27-323): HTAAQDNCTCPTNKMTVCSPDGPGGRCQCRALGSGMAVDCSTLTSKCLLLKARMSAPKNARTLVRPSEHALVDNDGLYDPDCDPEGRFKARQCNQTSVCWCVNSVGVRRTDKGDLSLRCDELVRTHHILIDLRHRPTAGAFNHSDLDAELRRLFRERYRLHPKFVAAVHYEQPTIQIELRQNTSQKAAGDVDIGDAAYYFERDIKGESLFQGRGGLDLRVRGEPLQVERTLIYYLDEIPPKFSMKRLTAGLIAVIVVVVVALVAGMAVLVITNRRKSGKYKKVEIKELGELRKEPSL
Sequence of rhTrop-2/TACSTD2 (Sino Biological, Inc.), recombinant human Trop-2 immobilized on CM5 chip (human) (P09758 27-274 limits assumed): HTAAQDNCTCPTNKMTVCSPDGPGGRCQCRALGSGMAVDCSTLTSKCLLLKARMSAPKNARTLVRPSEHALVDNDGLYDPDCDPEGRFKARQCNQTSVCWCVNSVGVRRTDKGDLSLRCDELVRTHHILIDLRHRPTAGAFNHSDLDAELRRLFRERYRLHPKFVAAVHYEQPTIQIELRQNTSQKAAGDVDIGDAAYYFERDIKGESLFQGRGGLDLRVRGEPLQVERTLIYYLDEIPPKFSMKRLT
Sequence of Recombinant human Trop-2 with a His-tag (Sino Biological, Inc., Cat#10428-H09H) (human) (P09758 27-274 limits assumed): as above

On to “162-46.2 (murine monoclonal antibody against human Trop-2, hybridoma ATCC HB-187)”, for which, in assay [1], the BMax (relative luminescent units) amounted to 8470, the Kd was 0.52 nM and the reduction of maximum binding (Bmax) against RS7 stood at 25%.

Consider “MAB650 (murine monoclonal antibody against human Trop-2, R&D Systems)”, for which, in assay [1], the BMax (relative luminescent units) was found to be 6020, the Kd was 0.49 nM and the reduction of maximum binding (Bmax) against RS7 came out at 50%.

Regarding “Sacituzumab govitecan (IMMU-132, also known as hRS7-CL2A-SN-38) (antibody)”, the Kd in [2] stood at 0.26 nM. In assay [3], the fold lower average binding level than hRS7 came out at 2 fold. Besides, the Kd in assay [4] turned out to be 192 nM. In assay [5], this molecule came in with an ADCC, specific lysis of MDA-MB-468 (4-h LDH release, E:T 50:1, 33.3 nM) of 8.6%; a Median fluorescence intensity of anti-rH2AX-AF488 staining (dsDNA breaks), HCC1806 (Trop-2+) of 546 MFI; a decrease of ADCC relative to hRS7 (MDA-MB-468, NIH:OVCAR-3, BxPC-3) of over 60%; a γH2AX induction in BxPC-3, Mean Fluorescence Intensity of 5350 MFI. For the same molecule, in [5], the γH2AX induction in BxPC-3, Percent Positive was determined as 69%. In addition, in assay [6], the Kd is 1.2 nM. Also, the fold improvement of KD against naked hRS7 in [7] is 2 fold.

B1: hA20-SN-38 (anti-CD20 hA20 / veltuzumab conjugated to SN-38), non-binding control conjugate (antibody, INN chains, looked up, V domains shown, part only)
VH: QVQLQQSGAEVKKPGSSVKVSCKASGYTFTSYNMHWVKQAPGQGLEWIGAIYPGMGDTSYNQKFKGKATLTADESTNTAYMELSSLRSEDTAFYYCARSTYYGGDWYFDVWGQGTTVTVSS
VL: DIQLTQSPSSLSASVGDRVTMTCRASSSVSYIHWFQQKPGKAPKPWIYATSNLASGVPVRFSGSGSGTDYTFTISSLQPEDIATYYCQQWTSNPPTFGGGTKLEIKR
modifications: SN-38 via CL2A linker
For B1, in [8], the γH2AX induction in BxPC-3, Mean Fluorescence Intensity is 2250 MFI and the γH2AX induction in BxPC-3, Percent Positive came out at 12.7%.

B2: humanized RS7 (hRS7) anti-Trop-2 antibody, hRS7 IgG (antibody, INN chains, looked up, V domains shown, part only)
VH: QVQLQQSGSELKKPGASVKVSCKASGYTFTNYGMNWVKQAPGQGLKWMGWINTYTGEPTYTDDFKGRFAFSLDTSVSTAYLQISSLKADDTAVYFCARGGFGSSYWYFDVWGQGSLVTVSS
VL: DIQLTQSPSSLSASVGDRVSITCKASQDVSIAVAWYQQKPGKAPKLLIYSASYRYTGVPDRFSGSGSGTDFTLTISSLQPEDFAVYYCQQHYITPLTFGAGTKVEIK
Regarding B2, the Kd in [2] was determined as 0.51 nM; in assay [9] it was 0.3 nM; in [4], 92.4 nM. For the same molecule, the ADCC, specific lysis of BxPC-3 by PBMC (E:T 100:1, 33.3 nM) in [8] came out at 8.5%. The ADCC, specific lysis of MDA-MB-468 (4-h LDH release, E:T 50:1, 33.3 nM) in [8] was found to be 29.8%.

Values taken from patent US20170224837A1.
